{"source": "the nanobody polyreactivity screen of Harvey et al. (2022)", "data": [{"experiment": "yeast display, Sf9 membrane polyspecificity reagent, FACS + sequencing; frameworks hold sequencing errors", "how_it_was_run": "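Synthetic nanobody libraries on Saccharomyces cerevisiae BJ5465 were galactose-induced for 36–48 hours, stained 1 hour at 4 °C with 10% biotinylated, detergent-solubilized Sf9 membrane reagent and enriched on streptavidin microbeads. FACS then separated cells into low and high (top ~1%) gates by anti-HA (expression) and streptavidin (reagent binding) fluorescence. Genes were colony-PCR amplified, MiSeq 2 × 250 sequenced and CDR-length filtered. A clone's polyreactivity label is that of its gate of origin.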", "values": [{"sequence": "QVQIVESGGGLVQAGGSLRLSCAPSGSNIDYNDMGRYRQAPGKEWELVAAISGRGTRTYYADSVKGRFTISRDNAKNTVYLQMNSLKPEDTAVYYCAASTRGRYWGRFGYWGQRTQVTVSS", "polyreactivity (PSR sort gate)": "high polyreactivity"}, {"sequence": "QVQIVESGGGLVQAGGSLRLSCASSGSTFTHYAMGWYRQAPGKERELVAGISWGGSSTYYADSVKGRFTISRDNAKNTVYLQMNSLKPEDTAVYYCAAGRRGSYPGGYGYWGQGTQVTVSS", "polyreactivity (PSR sort gate)": "low polyreactivity"}, {"sequence": "QVQIVESGGGLVQAGGSLRLSCASSGSTFVPNDMGSYRQAPWKERELVAAISRSGDDTYYADSVKGRFTISRDNAKNTVYFQMNSLIPEDTAVYYCNAAGRPFFLRPLRWELDYWGQGTQVTVSS", "polyreactivity (PSR sort gate)": "low polyreactivity"}, {"sequence": "QVQIVESGGGLVQAGGSLRLSCGASGSTLGWYGMGWYRQAPGKERELVATISESGGSTYYADSVKGRFTISRDNAKNTVYLQMNSLKPEDTAVYYCAADDRGLISRRGYFYLSYDYWGQGTQVTVSS", "polyreactivity (PSR sort gate)": "low polyreactivity"}, {"sequence": "QVQIVESGGGLVQAGGSLRLSCSASGNIFYKYAMGWFRQAPGKERELVAAITWRVVRTYYADSVKGRFTISRDNAKNTVYLQMNSLKPEDTAVYYCAALSRQSGDYWGQGTQLTVSS", "polyreactivity (PSR sort gate)": "high polyreactivity"}, {"sequence": "QVQIVESGGGLVQAGGSLRLSCTASGRIFYRYAMGWYRQAPGKERELVAAIRYSGGRTYYADSVKGRFTISRDNAKNTVYLQMNSLKQEDTAVYYCAADGQWYYAPFRGGVYENDYWGQGTQVTVSS", "polyreactivity (PSR sort gate)": "low polyreactivity"}, {"sequence": "QVQIVESGGGLVQAGGSLRLSSAAYGSTFAIYTMGWSRQAPGKERELVATISYSGGGTYYADSVKGRFTISRDNAKNTVYLQMNSLKPEDTAVYYCAAGRRTYYGTYYYWGQGTQVNVSS", "polyreactivity (PSR sort gate)": "high polyreactivity"}, {"sequence": "QVQIVESGGGLVQAGGSLRLTCAASGFTLPIYAMGWYRQAPGKEREFVAAITASGDNTYYADSVKGRFTISRDNAKNTVYLQMNSLKPEDTAVYYCAAAHWWIVGYDYWGQGTQVTVSS", "polyreactivity (PSR sort gate)": "low polyreactivity"}, {"sequence": "QVQIVESGGGLVQAGGSLRLTCAASGSIFGDYAMGWYRQASGKERELVASISESGGSTYYADSVKGRFTISRDNAKNTVYLQMISLKPEDTAVYYCNTDYDYGWWDLGEYEYWGHGTQVTVSS", "polyreactivity (PSR sort gate)": "low polyreactivity"}, {"sequence": "QVQIVESGGGLVQAGGSLRLTCAASGSTFYDYAMGWYRQAPGKERDLVAAITSADSTNYADSVKGRFTISRDNAKNTVYLQMNSLKPEDTAVYYCGQGTQVTVSS", "polyreactivity (PSR sort gate)": "low polyreactivity"}, {"sequence": "QVQIVESGGGLVQAGGSLRLTCAASGYIFKYYAMGWYRQAPGKERELVAAITIGGNTNYADSVKGRFTISRDNAKNTVYLQMNSLKPEDTAVYYCATGGYYSAIVYGGYDYWGQGTQVTVSS", "polyreactivity (PSR sort gate)": "low polyreactivity"}, {"sequence": "QVQIVESGGGLVQAGGSLRVSCAASGSIYTYNGMGWYRQAPWKERELDAAISASGGRTYYADSVKGRYTISRDNAKNTVYLQMNRLKPEDNAVYYCAARILVSGLSRFDYWGQGTQVTVSA", "polyreactivity (PSR sort gate)": "high polyreactivity"}, {"sequence": "QVQIVESGGGLVQAGGSLSLICAASGYIFGNYAMGWYRQAPGKESELVADITWRGDSTYADSVKGRFTISRDNSKNTVYLQMNSLKPEDTAVYYCAADIATEYWYTGYDHWGQGTQVTVSS", "polyreactivity (PSR sort gate)": "low polyreactivity"}, {"sequence": "QVQIVESGGGLVQAGRSLRLSCAASGLIFRAYAMGWYRQAPGKDRELVAAITRSGGRTYYADSVKGRFTISRDNAKNTVYLQMNTLKPVDTAVYYSAAEYGNTYSSYTYDYWGQGTQVNVSS", "polyreactivity (PSR sort gate)": "high polyreactivity"}, {"sequence": "QVQIVESGGGLVQAGVSLRLSCAASGSIYYEYTMGWYRQAPGKERELVAVITSCGTTNYADSVKGRFTISRDNAKNTVFLQMNSLKPEDTAVYYCAAKRRTGGNGYWGQGTQVTVSS", "polyreactivity (PSR sort gate)": "high polyreactivity"}, {"sequence": "QVQIVESGGGLVQARGSLRLSCAASGFIFGSYASGWYRQAPGKERELVAAISWNGDSTYYADSVKGRFTISRDNAKITVYLQMNSLKPEDTAVYYCNAVDVFLYQTDGLGDYWGQGTQVTVSS", "polyreactivity (PSR sort gate)": "low polyreactivity"}, {"sequence": "QVQIVESGGVLVQAGGSLRLSCAASGLTFVQYDMGWYRHAPGKERELVADISGSAGDTYYADSVKGRFTISRDNAKKTVYLQMNSLKPEDTAVYYCNAYGAEYLQYGWRDYWGQGTQLTVSS", "polyreactivity (PSR sort gate)": "low polyreactivity"}, {"sequence": "QVQIVESGRGLVQAGGSLRLSCAASGSIFHPKAMGWYRQAPGKERELVAAITSGGGSTYYADSVKVRYTISRDNAKNTVYLQMNSLKPEDTAVYYCNKVFVLPYKFVAWFDYWGQGTQVTVSS", "polyreactivity (PSR sort gate)": "low polyreactivity"}, {"sequence": "QVQIVESVGRLVQAGCSLRLSCDASGRIFGTNAKGWYSQAPGKDRELFAAINGSDSSTYYADSVKGRFTISRDNAKNSDYLQMNSLKPEDNAVYYCNADWSRAPERSTYGYDYWGHGTQVTVSS", "polyreactivity (PSR sort gate)": "low polyreactivity"}, {"sequence": "QVQIVETGGGLVQAGGSLRISCAASGSTLIRNVMGWYRQAPGKERELVAAINTRGTTTYYADSVKGRFTISRDNAKNTVYLQMNSLKPEDTAVYYCAAYAYSAYSPDGQRSRYYYWGLGTQVTVSS", "polyreactivity (PSR sort gate)": "high polyreactivity"}, {"sequence": "QVQIVETGGGLVQAGGSLRLSCAASGRIFFRNPMGWYRPAPRKEREFVAAINWSGGSTYYADSVKGRFTISRDNAKNTVYLQMNSLKPEDTAVYYCAARGSRGGRRGATASMDYWGQGTQVTVSS", "polyreactivity (PSR sort gate)": "high polyreactivity"}, {"sequence": "QVQLAESGGGLVQAGGSLRLSCAASGGTIGVNAMGWYRQAPGKERELVARISRIGASTHYADSVKGRFTISRDNAKNTVYLMMNSLKPEDTAVYYCAKSNGTPGNFGYWGQGTQVTVSS", "polyreactivity (PSR sort gate)": "low polyreactivity"}, {"sequence": "QVQLAESGGGLVQAGVSLRISCAASGSTFSVYAMGWYRQAPGKERELVATIRRGGSTYADSVKGRFTISRDNAKITVYLQMNRLKPEDTAVYYCASDAYVSYQPMDYWGQGTQVTVSS", "polyreactivity (PSR sort gate)": "high polyreactivity"}, {"sequence": "QVQLEDSGGGLVQAGARLRLSCAASGSTFAQNAMGRYRQAPGKERELVAAITYSGGSTYYADSVKGRFSISRDNAKNTVYLQMNSLKPEDTAVYYCAADVWWSYYRYDYWGQATQVTVSS", "polyreactivity (PSR sort gate)": "low polyreactivity"}, {"sequence": "QVQLEDSGGGLVQAGGRLRLSCAASGYIFSDYAMGWYRQAPGKERELVADIRARGGSTYYADSVKGRFTISRDKAQNTVYLQMNSLKPEDTAVYYCNVEDPFYSGVVEFDYWGQGTQVTVSS", "polyreactivity (PSR sort gate)": "low polyreactivity"}, {"sequence": "QVQLEDSGGGLVQAGGRLRLTCAASGSIFSLNAMGWSRKAPGKERELVAAINSGGTTNYADSVKGRFTISRDNAKNTVYLQMNSLKPEDSAVYYCATDGYYYYYRVYKFDYWGLGTQVTVSS", "polyreactivity (PSR sort gate)": "low polyreactivity"}, {"sequence": "QVQLEDSGGGLVQAGGSLRLSCAASGITVFYYAMGWSRQAPGKERELVATMSWGGDSTYSADSVKGRFTISRDNAKNTVYLQMNSLKPEDTAVYYCAARYWFFRFWYDYWGQGTQVTVSS", "polyreactivity (PSR sort gate)": "high polyreactivity"}, {"sequence": "QVQLEDSGGGLVQAGGSLRLSCAASGSTFPLNAMGWYRQAPGKERELVASINFGGGTTYYADSVKGRFTISRDNAMNTVYLQMNSLKPEDTAVYYCAADVYQEFGYWGQGTQVTVSS", "polyreactivity (PSR sort gate)": "high polyreactivity"}, {"sequence": "QVQLEDSGGGLVQAGGSLRLTCAASGRIFYPNVIGRNRQAPGKERELVAAIRTSGTGTYYADSVKGRFTISRDNAMNNVYLQMNSQKTQDTAGYYCAADYGYNRYWWWDWSYEYGYEYWGQGTQVTVSS", "polyreactivity (PSR sort gate)": "high polyreactivity"}, {"sequence": "QVQLEEKRRGLVQAGGSLRLSCASSGRTFVTNAMGRYRQAPGKERELVAAISSSGGSTYYADSVKGRFTISRDNAMNTVYLQMNSLKPEDTAVYYCAVAGQTKGQYDYWGQGTQVTVSS", "polyreactivity (PSR sort gate)": "low polyreactivity"}, {"sequence": "QVQLEESAGGLVQAGGSLRLSCAASGRIFTGSNVMVWYRQSPGKETEFVAVINSGGGSTYYADSVKGRFTISRDNAKNTVFLQMNSLKPEDTAVYYCAADVGGWGYYYWGQGTQVTVSS", "polyreactivity (PSR sort gate)": "low polyreactivity"}, {"sequence": "QVQLEESAGGLVQAGGSLRLSCAASGSIFRVYGMGWYRQAPGKVTELVASITYRGGNTYYADSVKGRFTISRDNAKNTVYVQMNSLKPEDTAVFDCARSGYQKVGGFRSDYWGQGTEVTVSS", "polyreactivity (PSR sort gate)": "low polyreactivity"}, {"sequence": "QVQLEESCGGLVQAGGSLRLSCAASGSIFGTYAMGLYRHAPGKEREFVADISGIGTSTYYADSVKGRFTISRDNAKNTVYLQMNSLKPEDTAVYYCAAESFDTVEYDYWGQGTQVTVSS", "polyreactivity (PSR sort gate)": "low polyreactivity"}, {"sequence": "QVQLEESGAGLVQARGSLRLSCAASGRTFIWNAMGWYRQAPGKERELVAAISSRGGRTYYADSVKGRFTISRDNAKNTVYLQMNILKPEDTAVYYCAAYYITFIGRGYGYWGQGTQVTVSS", "polyreactivity (PSR sort gate)": "high polyreactivity"}, {"sequence": "QVQLEESGGALFQAGGSIRLSCAASGYTFDAYAMGWYRQAPGKERELVADINYSVGSTTYADSVKGRFTISRDNAKNTVYLQMNSLKTEDTAVYYCAAQGTWYAWDYDYWGQGTQVTVSS", "polyreactivity (PSR sort gate)": "low polyreactivity"}, {"sequence": "QVQLEESGGGIVQAGGSLRLSCAASGGIFGTYAMGWYRQAPRKERELVASISSDTSTTYADSVKGRFTISRDNAKNTVYLQMNSLKAEDTAVYYCAAGSDYDDDYWGQGTQVTVSS", "polyreactivity (PSR sort gate)": "high polyreactivity"}, {"sequence": "QVQLEESGGGIVQAGGSLRLSCAASGRTCSNYAMGWNRQAPGKERQLVASIRSSGTSTYYADSVKGRFTISRDIAKNTVYLKMNSLKPEDTAVYYCAKRYFTWSSTYNYWGQGTQVTVSS", "polyreactivity (PSR sort gate)": "high polyreactivity"}, {"sequence": "QVQLEESGGGIVQAGGSLRLSCAASGSTFNYYAMGWYRQAPGKERELVAAINSNGGSTYYADSVKGRFTISRDNAKNTVYLQMNSPKPEDTAVYLCAADISPYDYDYWGQGTQVTVSS", "polyreactivity (PSR sort gate)": "high polyreactivity"}, {"sequence": "QVQLEESGGGIVQAGGSLRLSCAASGSTFVLNAMGWYRKAPGKERELVAAITRDGRTYYADSVKGRFTISRDNAKNTVYLQMNSLKPEDTAVYYCARPARYSYGDGYWGQGTLVTVSS", "polyreactivity (PSR sort gate)": "low polyreactivity"}, {"sequence": "QVQLEESGGGIVQAGGSLRLSCASSGFIFKAYAMVWSRQAPGKERDLVAVITGSSGRTYADSVKGRFTISRDNAKNTVYLQMNSLKPEDTAVYYCAADLRKSKYRYWRRYDYWGQGTQVTVSS", "polyreactivity (PSR sort gate)": "high polyreactivity"}, {"sequence": "QVQLEESGGGIVQAGGTLRLTCAASGRIYATNAMGWSRQAPGKERELVATITRSAGRTYYADSVKGRFTISGDNAKNTVYLQMNSLKPEDTAVYYCAASYWDTEPGYREYDYWGQGTEVTVSS", "polyreactivity (PSR sort gate)": "low polyreactivity"}, {"sequence": "QVQLEESGGGLEQAGGSLRLSCAATGSIFNFYAMAWYIRAPGKERELVAAITRSGGSTYYADSVKGRFTISRDNAKNTVYLQMNSLIPEDTAVYYCSAASRKRTSREPLDYWGQGTQVTVSS", "polyreactivity (PSR sort gate)": "high polyreactivity"}, {"sequence": "QVQLEESGGGLFQAGGSLRLSCAASGTTQNGYTMGWYRQAPGKEREMVATINRGSSTHYADSVKGRFTISRDNAKNTVYLQMNSLKPEDTAVYYCNKRYPLGTEYYYLGQGTQVTVSS", "polyreactivity (PSR sort gate)": "high polyreactivity"}]}]}
